# From paper PMC10945777 (Proceedings of the National Academy of Sciences of the …, 2024)
# Tests used:
# [1] = target: NrtBCD (nitrate site in NrtB dimer) (Nostoc sp. PCC 7120 = FACHB-418, UniProt A0ACD6B946); experiment: colorimetric ATPase assay; type: biochemical; conditions: 2 mM MgCl2, 50 mM Tris-HCl pH 8.0, 150 mM NaCl, 0.02% GDN, 37 °C
# [2] = target: NrtB of Anabaena sp. PCC 7120 (transmembrane subunit, as it stands in NrtBCD) (Anabaena sp. PCC 7120); experiment: cryo-EM structure
# [3] = target: signaling protein PII of Anabaena sp. PCC 7120 (Anabaena sp. PCC 7120); experiment: cryo-EM structure
molecule,measurement,setting,value
O=[N+]([O-])O [nitrate],fold stimulation of ATPase activity at 8 mM,[1],~ 2.5 fold
"NrtB of Anabaena sp. PCC 7120 (transmembrane subunit, as it stands in NrtBCD) (natural protein)",stoichiometry N,[2],2
signaling protein PII of Anabaena sp. PCC 7120 (natural protein),stoichiometry N,[3],3
